Experimental data as given in paper PMC9634608, “Multi-crystal native-SAD phasing at 5 keV with a helium environment” (IUCrJ, 2022).

Molecular target: the molecule itself
Experiment: crystal structure; native-SAD at 5 keV with a helium path, 18 microcrystals, space group R3, 2.6 Å; crystals grown by sitting drop at 4°C in 0.1 M HEPES pH 7.8, 1 mM ZnSO4, 27–29% PEG 400, protein in β-OG

B1: TehA (natural protein)
chain: MNITKPFPLPTGYFGIPLGLAALSLAWFHLENLFPAARMVSDVLGIVASAVWILFILMYAYKLRYYFEEVRAEYHSPVRFSFIALIPITTMLVGDILYRWNPLIAEVLIWIGTIGQLLFSTLRVSELWQGGVFEQKSTHPSFYLPAVAANFTSASSLALLGYHDLGYLFFGAGMIAWIIFEPVLLQHLRISSLEPQFRATMGIVLAPAFVCVSAYLSINHGEVDTLAKILWGYGFLQLFFLLRLFPWIVEKGLNIGLWAFSFGLASMANSATAFYHGNVLQGVSIFAFVFSNVMIGLLVLMTIYKLTKGQFFLK
notes: TehA, a bacterial homolog of the plant nitrate/chloride channel SLAC1; construct as described by Chen et al. (2010); The printed length of 314 residues may differ from the length of the UniProt entry; also called membrane protein TehA; source: E. coli BL21(DE3) pLysS, purified (IMAC, size-exclusion chromatography); not shown: His tag, C-terminal, cleaved
In the case of B1, the “stoichiometry N” value is reported as 3.
